According to article doi:10.64898/2025.12.19.695423:

Molecular target: Huntingtin Exon 1 with 44 glutamines (HttEx1Q44) amyloid fibrils
Test: MST

K app with FP20: 170 nM | Kd: 460 nM
Substance: E3 ubiquitin ligase CHIP (from UniProt Q9UNE7 1-303) (enzyme)
